Source: patent US20230381333A1, “PHARMACEUTICAL COMPOSITION COMPRISING GLUCAGON/GLP-1/GIP TRIPLE AGONIST OR LONG-ACTING CONJUGATE THEREOF FOR PREVENTING OR TREATING VASCULITIS” (HANMI PHARM CO., LTD., priority 2020, published 2023)
Bridge positions count the residues as written; N and C are the ends. Square brackets hold non-standard residues; d marks the D form. Ends that are not written are not given here. Aib = CC(C)(N)C(=O)O

What was measured:
Assay type in all cases: cell-based
[1] = biological target: T1, human GIP receptor (Homo sapiens, UniProt P48546); assay: In vitro cAMP activity in human GIP receptor-expressing CHO cells (LANCE cAMP kit); conditions: long-acting conjugate; relative titer from cAMP EC50 compared to human GIP
T1 construct: expressed in transfected cells; host or cells: Chinese hamster ovary (CHO)
T1 sequence (P48546 22-466): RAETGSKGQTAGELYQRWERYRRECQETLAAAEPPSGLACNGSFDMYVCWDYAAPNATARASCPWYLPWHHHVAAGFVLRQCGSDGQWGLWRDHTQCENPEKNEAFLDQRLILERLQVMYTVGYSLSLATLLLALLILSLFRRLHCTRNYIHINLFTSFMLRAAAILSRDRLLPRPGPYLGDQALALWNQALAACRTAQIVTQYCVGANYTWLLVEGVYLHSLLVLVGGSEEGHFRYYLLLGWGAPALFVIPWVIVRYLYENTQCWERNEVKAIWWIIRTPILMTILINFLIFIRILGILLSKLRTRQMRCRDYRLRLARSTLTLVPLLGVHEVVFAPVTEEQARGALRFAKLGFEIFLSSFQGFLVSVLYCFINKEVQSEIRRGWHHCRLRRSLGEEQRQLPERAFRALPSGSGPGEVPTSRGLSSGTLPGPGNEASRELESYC
Procedure: (§1) In order to measure the activity of the triple agonists and long-acting conjugates thereof prepared according to Examples 1 and 2, the in-vitro cell activity was measured using cell lines transformed with GLP-1 receptor, glucagon (GCG) receptor, and GIP receptor, respectively.
(§2) The cell lines were transformed to express human GLP-1 receptor, human GCG receptor and human GIP receptor genes in Chinese hamster ovary (CHO), respectively, and are suitable for measuring the activities of GLP-1, GCG, and GIP. Therefore, the activity for each part was measured using each transformed cell line.
To measure the GIP activity of the triple agonists and long-acting conjugates thereof prepared according to Examples 1 and 2, human GIP was diluted from 50 nM to […] by 4-fold serial dilution, and the triple agonists and long-acting conjugates thereof prepared according to Examples 1 and 2 were diluted from 400 nM to 0.00038 nM by 4-fold serial dilution. The culture medium was removed from the cultured human GIP receptor-expressing CHO cells, 5 μl of each of the serially diluted materials was added to the cells, and then 5 μl of buffer containing cAMP antibody was added to the cells, followed by 15 minutes of incubation at room temperature. Then, cells were lysed by adding 10 μl of detection mix containing cell lysis buffer, and reacted at room temperature for 90 minutes. The cell lysate after the reaction had been completed, was applied to the LANCE cAMP kit (PerkinElmer, USA) to calculate the EC50 value through the accumulated cAMP, and then compared with each other.

[2] = biological target: T2, human GCG receptor (Homo sapiens, UniProt P47871); assay: In vitro cAMP activity in human GCG receptor-expressing CHO cells (LANCE cAMP kit); conditions: for In vitro activity compared to native-type peptide (%) vs Glucagon: long-acting conjugate, relative titer from cAMP EC50 compared to human GCG; for activity on the glucagon receptor: in words
T2 construct: expressed in transfected cells; host or cells: Chinese hamster ovary (CHO)
T2 sequence (P47871 26-477): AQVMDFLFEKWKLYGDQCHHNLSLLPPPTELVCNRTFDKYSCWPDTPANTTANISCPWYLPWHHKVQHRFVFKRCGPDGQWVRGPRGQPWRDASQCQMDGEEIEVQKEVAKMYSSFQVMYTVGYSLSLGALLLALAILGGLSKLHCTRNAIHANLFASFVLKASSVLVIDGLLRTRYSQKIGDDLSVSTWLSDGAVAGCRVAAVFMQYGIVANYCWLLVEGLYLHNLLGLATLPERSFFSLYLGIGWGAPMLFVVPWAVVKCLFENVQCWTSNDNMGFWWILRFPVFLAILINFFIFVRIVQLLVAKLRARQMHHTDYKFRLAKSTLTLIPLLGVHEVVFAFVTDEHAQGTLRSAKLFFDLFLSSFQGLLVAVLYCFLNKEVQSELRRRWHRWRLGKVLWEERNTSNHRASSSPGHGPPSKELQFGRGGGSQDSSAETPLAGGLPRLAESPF
Procedure: as §1, §2
To measure the GCG activity of the triple agonists and long-acting conjugates prepared according to Examples 1 and 2, human GCG was diluted from 50 nM to […] by 4-fold serial dilution, and the triple agonists and long-acting conjugates thereof prepared according to Examples 1 and 2 were diluted from 400 nM to 0.00038 nM by 4-fold serial dilution. The culture medium was removed from the cultured human GCG receptor-expressing CHO cells, 5 μl of each of the serially diluted materials was added to the cells, and then 5 μl of buffer containing cAMP antibody was added to the cells, followed by 15 minutes of incubation at room temperature. Then, cells were lysed by adding 10 μl of detection mix containing cell lysis buffer, and reacted at room temperature for 90 minutes. The cell lysate after the reaction had been completed, was applied to the LANCE cAMP kit (PerkinElmer, USA) to calculate the EC50 value through the accumulated cAMP, and then compared with each other.

[3] = biological target: T3, human GLP-1 receptor (Homo sapiens, UniProt P43220); assay: In vitro cAMP activity in human GLP-1 receptor-expressing CHO cells (LANCE cAMP kit); conditions: long-acting conjugate; relative titer from cAMP EC50 compared to human GLP-1
T3 construct: expressed in transfected cells; host or cells: Chinese hamster ovary (CHO)
T3 sequence (P43220 24-463): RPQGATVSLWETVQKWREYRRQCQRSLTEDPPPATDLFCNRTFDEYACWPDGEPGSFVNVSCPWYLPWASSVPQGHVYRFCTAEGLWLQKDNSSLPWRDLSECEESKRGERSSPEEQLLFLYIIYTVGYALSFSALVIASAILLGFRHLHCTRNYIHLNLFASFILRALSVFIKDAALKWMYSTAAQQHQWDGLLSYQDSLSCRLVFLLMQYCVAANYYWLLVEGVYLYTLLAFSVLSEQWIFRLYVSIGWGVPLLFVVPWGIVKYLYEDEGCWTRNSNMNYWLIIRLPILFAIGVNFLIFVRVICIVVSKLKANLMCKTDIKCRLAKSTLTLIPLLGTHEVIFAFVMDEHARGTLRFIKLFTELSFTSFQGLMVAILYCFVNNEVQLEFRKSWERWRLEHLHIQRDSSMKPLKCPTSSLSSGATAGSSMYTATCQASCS
Procedure: as §1, §2
To measure the GLP-1 activity of the triple agonists and long-acting conjugates prepared according to Examples 1 and 2, human GLP-1 was diluted from 50 nM to 0.000048 nM by 4-fold serial dilution, and the triple agonists and long-acting conjugates thereof prepared according to Examples 1 and 2 were diluted from 400 nM to 0.00038 nM by 4-fold serial dilution. The culture medium was removed from the cultured human GLP-1 receptor-expressing CHO cells, 5 μl of each of the serially diluted materials was added to the cells, and then 5 μl of buffer containing cAMP antibody was added to the cells, followed by 15 minutes of incubation at room temperature. Then, cells were lysed by adding 10 μl of detection mix containing cell lysis buffer, and reacted at room temperature for 90 minutes. The cell lysate after the reaction had been completed, was applied to the LANCE cAMP kit (PerkinElmer, USA) to calculate the EC50 value through the accumulated cAMP, and then compared with each other.

Row | Substance | In vitro activity compared to native-type peptide (%) vs GIP [1] [%] | In vitro activity compared to native-type peptide (%) vs Glucagon [2] [%] | In vitro activity compared to native-type peptide (%) vs GLP-1 [3] [%] | activity on the glucagon receptor [2]
1 | 21 (Y[Aib]QGTFTSDYSKYLDECRAKEFVQWLLDHHPSSGQPPPS; lactam 16-20) [compound 21] | 0.2 | 1.6 | 0.1 | 
2 | 22 (Y[Aib]QGTFTSDYSKCLDEKRAKEFVQWLLDHHPSSGQPPPS; lactam 16-20) [compound 22] | 0.5 | 0.9 | 0.1 | 
3 | 42 (Y[Aib]QGTFTSDYSKYLDEKRAKEFVQWLLDHHPSSGQPPPSC; lactam 16-20) [compound 42] | 1.2 | 23.1 | 3.1 | 
4 | 43 (Y[Aib]QGTFTSDYSKYLDEKRAKEFVQWLLDHHCSSGQPPPS; lactam 16-20) [compound 43] | 0.6 | 13.5 | 2.1 | 
5 | 50 (H[Aib]QGTFTSDYSKYLDEKRAKEFVQWLLDHHPSSGQPPPSC; lactam 16-20) [compound 50] | 0.7 | 6.9 | 15.4 | 
6 | 77 (Y[Aib]QGTFTSDYSKYLDEKAAKDFVQWLLDHHPSSGQPPPSC; lactam 16-20) [compound 77] | 6.6 | 1.7 | 6.7 | 
7 | 96 (Y[Aib]QGTFTSDYSKYLDEKRAKEFVQWLLDHCPSSGQPPPS; lactam 16-20) [compound 96] | 0.3 | 4.0 | 0.3 | 
8 | YXQGTFTSDYSKCLDEKRAKEFVQWLLDHHPSSGQPPPS (Y[Aib]QGTFTSDYSKCLDEKRAKEFVQWLLDHHPSSGQPPPS; lactam 16-20) [Sequence number 22] |  |  |  | very high activity
9 | YXQGTFTSDYSKYLDECRAKDFVQWLLDHHPSSGQPPPS (Y[Aib]QGTFTSDYSKYLDECRAKDFVQWLLDHHPSSGQPPPS; lactam 16-20) [Sequence number 66] |  |  |  | very high activity
10 | YXQGTFTSDYSKYLDECRAKEFVQWLLDHHPSSGQPPPS (Y[Aib]QGTFTSDYSKYLDECRAKEFVQWLLDHHPSSGQPPPS; lactam 16-20) [Sequence number 21] |  |  |  | very high activity
11 | YXQGTFTSDYSKYLDEKRAKEFVQWLLDCHPSSGQPPPS (Y[Aib]QGTFTSDYSKYLDEKRAKEFVQWLLDCHPSSGQPPPS; lactam 16-20) [Sequence number 97] |  |  |  | very high activity
12 | YXQGTFTSDYSKYLDEKRAKEFVQWLLDHCPSSGQPPPS (Y[Aib]QGTFTSDYSKYLDEKRAKEFVQWLLDHCPSSGQPPPS; lactam 16-20) [Sequence number 96] |  |  |  | very high activity
13 | YXQGTFTSDYSKYLDEKRAKEFVQWLLDHHCSSGQPPPS (Y[Aib]QGTFTSDYSKYLDEKRAKEFVQWLLDHHCSSGQPPPS; lactam 16-20) [Sequence number 43] |  |  |  | very high activity
14 | YXQGTFTSDYSKYLDEKRAKEFVQWLLDHHPSSGQPPPSC (Y[Aib]QGTFTSDYSKYLDEKRAKEFVQWLLDHHPSSGQPPPSC; lactam 16-20) [Sequence number 42] |  |  |  | very high activity
